The results in this text go back to US20130122577, “KIT INCLUDING SEQUENCE SPECIFIC BINDING PROTEIN AND METHOD AND DEVICE FOR DETERMINING NUCLEOTIDE SEQUENCE OF TARGET NUCLEIC ACID” (Samsung Electronics Co., Ltd., published 2013).

The target of series [1] is ZF01 (two-finger zinc finger protein targeting AATTAG, YFP fusion) (Artificial Sequence). Description: EMSA; 20 mM bis-Tris propane pH 7.0, 100 mM NaCl, 5 mM MgCl2, 20 mM ZnSO4 (so in the source), room temperature 1 h; complementary strand SEQ 14 appears printed 3'-5'. The conditions noted are these: tags: YFP fused via (Gly2Ser)2 linker; Ni-NTA purified from E. coli BL21(DE3), pET21b-YFP-ZF (1). The procedure: (§1) In order to identify whether the sequence specific binding protein prepared in Example 2 specifically binds to the target nucleic acid, a gel mobility shift assay was performed.
Sequence of ZF01 (two-finger zinc finger protein targeting AATTAG, YFP fusion) (Artificial Sequence) (chain, as listed by the source): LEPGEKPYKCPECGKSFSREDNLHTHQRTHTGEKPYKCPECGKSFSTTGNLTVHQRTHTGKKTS
(§2) First, a 20-mer oligonucleotide including the nucleotide sequences AATTAG or AACTGA, which the sequence specific binding protein may specifically recognize, was synthesized (SEQ ID NO. 13 to SEQ ID NO. 16). Subsequently, each of the oligonucleotides of SEQ ID NOS. 13 and 14, SEQ ID NOS. 15 and 16 was annealed to prepare a target nucleic acid. The prepared target nucleic acid and the protein prepared in Example 2 was added to a buffer solution (including 10 ml of 20 mM bis-Tris propane (pH 7.0); 100 mM NaCl; 5 mM MgCl₂; 20 mM ZnSO₄; 10% glycerol; 0.1% Nonidet P-40; 5 mM DTT; and 0.10 mg/ml BSA), followed by reaction at room temperature for about 1 hour. The reactant was subjected to non-denaturing PAGE and as a result as shown in FIG. 6 and FIG. 7, it was identified that a combined product of a target nucleic acid 1 (a polynucleotide fragment including AATTAG) or 2 (a polynucleotide fragment including AACTGA) with ZF01 or ZF02 respectively recognizing the nucleic acid 1 or 2 was shorter in mobility distance on the gel than a negative control group (target nucleic acid).

Series [2] addresses ZF02 (two-finger zinc finger protein targeting AACTGA, YFP fusion) (Artificial Sequence). Description: EMSA; 20 mM bis-Tris propane pH 7.0, 100 mM NaCl, 5 mM MgCl2, 20 mM ZnSO4 (so in the source), room temperature 1 h; complementary strand SEQ 16 appears printed 3'-5'. Conditions: tags: YFP fused via (Gly2Ser)2 linker; Ni-NTA purified from E. coli BL21(DE3), pET21b-YFP-ZF (2). How it is done:
as §1, §2
(In EMSA bound probe runs differently from free probe, usually more slowly.)

Sequence of ZF02 (two-finger zinc finger protein targeting AACTGA, YFP fusion) (Artificial Sequence) (chain, as listed by the source): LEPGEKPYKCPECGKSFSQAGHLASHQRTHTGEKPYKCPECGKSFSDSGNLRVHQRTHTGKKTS

B1: target nucleic acid 1 (AATTAG 20-mer duplex) (dsDNA)
DNA 1: TTTTTTTAATTAGTTTTTTT
DNA 2: AAAAAAACTAATTAAAAAAA
On to B1, for which the binding result in series [1] is “binds”.

B2: target nucleic acid 2 (AACTGA 20-mer duplex) (dsDNA)
DNA 1: TTTTTTTAACTGATTTTTTT
DNA 2: AAAAAAATCAGTTAAAAAAA
In the case of B2, in series [2], the binding result is “binds”.
